Measurements published in patent US20260000087.

T1: alphaS1-casein, P02662
T1 chain: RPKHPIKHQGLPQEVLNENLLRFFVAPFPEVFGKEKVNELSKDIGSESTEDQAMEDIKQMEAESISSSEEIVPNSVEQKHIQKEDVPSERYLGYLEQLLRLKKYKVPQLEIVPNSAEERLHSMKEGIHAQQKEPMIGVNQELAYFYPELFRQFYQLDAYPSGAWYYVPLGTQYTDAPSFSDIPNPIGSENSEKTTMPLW

B1: aspartic protease or coagulant or chymosin represented by SEQ ID NO: 1 (protein)
chain: GKIAREPLTNYLDTEYFGKIQIGSPPQEFTVVFDTGSSDLWVPSVFCNSDACQNHHRFNPSKSSTFQNMNRPLSIQYGTGSMQGFLGYDTVTVSNIVVPHQTVGLSTQEPGDIFTYSEFDGILGLAYPSLASQYSVPVFDNMMKQHLVAQDLFSVYMNSQGQGSMLILGAIDPSYYVGALHWVPVTVQQYWQFTVDRITVDGVVVACDGGCQAILDTGTSLLVGPSSDILNIQTVIGATQGQYGEFDIDCGSLRSKPTVVFEINGREYPLPPTAYTNQDQGFCTSGFQGDDSQQWVLGDVFIREYYSVFDRVNNRVGLAKAI
B2: aspartic protease represented by SEQ ID NO: 4 (protein)
chain: GEVASEPLTSYLDSQYFGKIYIGTPPQEFTVVFDTGSSDLWVPSVYCKSDACQNHQRFDPSMSSTFQNLGKPLSIQYGTGSMQGFLGYDTVTVSDIVDPQQTVGLSTQEPGDVFTYSEFDGILGLAYPSLASEYSVPVFDNMMNRHLVAQDLFSVYMDRNGQESMLTLGAIDPSYYTGSLHWVPVTLQKYWQFTVDSVTIGGVVVACDGGCQAILDTGTSMLVGPSSDILNIQMAIGATQNQYGEFDIDCGSLSSMPTVVFEINSRMYPLTPSAYTNQDQGFCTSGFQGENNSQQWILGDVFIREYYSVFDRANNRVGLAKAV
B3: aspartic protease or coagulant or chymosin represented by SEQ ID NO: 3 (protein)
chain: GEAAKVTDEPLTNYLDSQYFGKIYIGTPPQEFTVVFDTGSSNLWVPSVYCNSDACQNHHRFNPASSTTFRSTQEPLSIQYGTGSMEGVLGYDTVTVSQIVVPDQIFGLSTQEPGEIFTYSEFDGILGLGYPSLAEDQATPVFDNMMNKNLVAQDLFSVYMSRDSQGSMLILGAIDPSYYTGSLHWVPVTEQGYWQFSVDSITVNGQVVACEGGCQAILDTGTSLLVGPSYDIANIQSIIGATQGQYGEYDINCSNLSSMPTVVVHINGRQYPLPPSAYTNQDQGLCSSGFQSEGSDQLWILGDVFIREYYSVFDRGNNRVGLATAV
B4: bovine chymosin (CHY-MAX Plus from Chr. Hansen A/S) (protein)
chain: GEVASVPLTNYLDSQYFGKIYLGTPPQEFTVLFDTGSSDFWVPSIYCKSNACKNHQRFDPRKSSTFQNLGKPLSIHYGTGSMQGILGYDTVTVSNIVDIQQTVGLSTQEPGDVFTYAEFDGILGMAYPSLASEYSIPVFDNMMNRHLVAQDLFSVYMDRNGQESMLTLGAIDPSYYTGSLHWVPVTVQQYWQFTVDSVTISGVVVACEGGCQAILDTGTSKLVGPSSDILNIQQAIGATQNQYGEFDIDCDNLSYMPTVVFEINGKMYPLTPSAYTSQDQGFCTSGFQSENHSQKWILGDVFIREYYSVFDRANNLVGLAKAI
B5: aspartic protease or coagulant or chymosin represented by SEQ ID NO: 2 (protein)
chain: GKVARESLTNYLDCQYFGKIYIGTPPQEFTVVFDTGSSDLWVPSVYCNSDACQNHHRFDPSKSSTFQNMDKSLSIQYGTGSMQGLLGYDTVTVSNIVDRHQTVGLSTQEPGDVFTYSEFDGILGLAYPSLASEYSVPVFDNMMDRHLVAQDLFSVYMSRNEQGSMLTLGAIDRSYYTGSLHWIPVTVQEYWQFTVDRVTVDGVVVACDGGCQAILDTGTSMLVGPGSDIFNIQQAIGATEGQFGEFDIDCGRLSSMPTVVFEINGKKYPLPPSAYTSQDQGFCTSGFQGDYSSQQWILGDVFIREYYSVFDRASNRVGLAKAI
B6: camel chymosin (CHY-MAX M from Chr. Hansen A/S) (protein)
chain: GKVAREPLTSYLDSQYFGKIYIGTPPQEFTVVFDTGSSDLWVPSIYCKSNVCKNHHRFDPRKSSTFRNLGKPLSIHYGTGSMEGFLGYDTVTVSNIVDPNQTVGLSTEQPGEVFTYSEFDGILGLAYPSLASEYSVPVFDNMMDRHLVARDLFSVYMDRNGQGSMLTLGAIDPSYYTGSLHWVPVTLQQYWQFTVDSVTINGVAVACVGGCQAILDTGTSVLFGPSSDILKIQMAIGATENRYGEFDVNCGNLRSMPTVVFEINGRDYPLSPSAYTSKDQGFCTSGFQGDNNSELWILGDVFIREYYSVFDRANNRVGLAKAI

Target: T1, alphaS1-casein, P02662

Q: B1 was tested. Which Degradation of intact alphaS1-casein (% of reference A) (% of reference A) did it give?
A: The Degradation of intact alphaS1-casein (% of reference A) (% of reference A) was 135.

Q: How did the Degradation of intact alphaS1-casein (% of reference A) (% of reference A) turn out when B2 was run?
A: Its Degradation of intact alphaS1-casein (% of reference A) (% of reference A) is 105.

Q: With B3 as the protein, how does the Degradation of intact alphaS1-casein (% of reference A) (% of reference A) read?
A: The Degradation of intact alphaS1-casein (% of reference A) (% of reference A) was 204.

Q: For B4, which Degradation of intact alphaS1-casein (% of reference A) (% of reference A) is on record?
A: The Degradation of intact alphaS1-casein (% of reference A) (% of reference A) was 100.

Q: How did the Degradation of intact alphaS1-casein (% of reference A) (% of reference A) turn out when B5 was run?
A: Its Degradation of intact alphaS1-casein (% of reference A) (% of reference A) is 71.

Q: How did the Degradation of intact alphaS1-casein (% of reference A) (% of reference A) turn out when B6 was run?
A: Its Degradation of intact alphaS1-casein (% of reference A) (% of reference A) is 38.
